From paper PMC4876929 (Nature, 2015)
Residue numbers refer to the chain shown, from its start. Names and notes keep the numbering of the source. Read-outs that look alike come from different tables or passages of the source.

Key:
[1] = molecular target: the molecule itself; experiment: crystal structure
[2] = molecular target: the molecule itself; experiment: crystal structure; remark: listed apart in the source

B1: Fluc channel from Bordetella pertussis (Bpe), R29K/E94C, Hg-labelled (natural protein)
chain: MLTYAPLNFIAIGIGATLGAWLRWVLGLKLNGAGWPWGTLTANLVGGYLIGVMVALIASHPEWPAWIRLAAVTGFLGGLTTFSTFSAETVDMLCRGVYATAAAYAGASLAGSLAMTGLGLATVRLLLR
modifications: Hg at the unique cysteine (E94C), labelled with Hg(II) acetate
In the case of B1, the “stoichiometry N” value [1] is reported as 2.

B2: Fluc channel from Bordetella pertussis (Bpe), R29K/E94S (natural protein, UniProt Q7VYU0 1-128, looked up)
chain: B1 chain with C94S
With B2 the “stoichiometry N” value [2] was 2.
